{"source": "the supplement of paper PMC5998384", "key": {"HeLa Kyoto [1]": {"test_system": "HeLa Kyoto", "assay": "solubility in G1/S (NP-40 vs SDS abundance) (log2 ratio); higher = more soluble", "details": "cell cycle stage: G1/S"}, "HeLa Kyoto [2]": {"test_system": "HeLa Kyoto", "assay": "melting temperature (median over replicates), in situ; higher = more thermally stable"}, "HeLa Kyoto [3]": {"test_system": "HeLa Kyoto", "assay": "solubility change mitosis vs G1/S (difference of NP-40 vs SDS log2 ratios) (log2 ratio difference); higher = more soluble in mitosis"}, "HeLa Kyoto [4]": {"test_system": "HeLa Kyoto", "assay": "thermal stability score vs G1/S (z-score of summed log2 fold changes over temperatures); higher = more thermally stable than in G1/S"}, "[5]": {"details": "cell cycle stage: early G1 (4.5 h after nocodazole release)"}}}
{"sequence": "MELPSGPGPERLFDSHRLPGDCFLLLVLLLYAPVGFCLLVLRLFLGIHVFLVSCALPDSVLRRFVVRTMCAVLGLVARQEDSGLRDHSVRVLISNHVTPFDHNIVNLLTTCSTPLLNSPPSFVCWSRGFMEMNGRGELVESLKRFCASTRLPPTPLLLFPEEEATNGREGLLRFSSWPFSIQDVVQPLTLQVQRPLVSVTVSDASWVSELLWSLFVPFTVYQVRWLRPVHRQLGEANEEFALRVQQLVAKELGQTGTRLTPADKAEHMKRQRHPRLRPQSAQSSFPPSPGPSPDVQLATLAQRVKEVLPHVPLGVIQRDLAKTGCVDLTITNLLEGAVAFMPEDITKGTQSLPTASASKFPSSGPVTPQPTALTFAKSSWARQESLQERKQALYEYARRRFTERRAQEAD [AUP1]", "values": [{"measurement": "solubility in G1/S (log2)", "setting": "HeLa Kyoto [1]", "value": -0.262}, {"measurement": "melting temperature", "setting": "HeLa Kyoto [2]; cell cycle stage: G1/S", "value": 50.9, "unit": "°C"}, {"measurement": "melting temperature", "setting": "HeLa Kyoto [2]; cell cycle stage: mitosis", "value": 50.6, "unit": "°C"}, {"measurement": "solubility change mitosis (log2)", "setting": "HeLa Kyoto [3]", "value": -0.102}, {"measurement": "thermal stability score", "setting": "HeLa Kyoto [4]; [5]", "value": 0.525}, {"measurement": "thermal stability score", "setting": "HeLa Kyoto [4]; cell cycle stage: mitosis", "value": 0.836}]}
{"sequence": "MELSQMSELMGLSVLLGLLALMATAAVARGWLRAGEERSGRPACQKANGFPPDKSSGSKKQKQYQRIRKEKPQQHNFTHRLLAAALKSHSGNISCMDFSSNGKYLATCADDRTIRIWSTKDFLQREHRSMRANVELDHATLVRFSPDCRAFIVWLANGDTLRVFKMTKREDGGYTFTATPEDFPKKHKAPVIDIGIANTGKFIMTASSDTTVLIWSLKGQVLSTINTNQMNNTHAAVSPCGRFVASCGFTPDVKVWEVCFGKKGEFQEVVRAFELKGHSAAVHSFAFSNDSRRMASVSKDGTWKLWDTDVEYKKKQDPYLLKTGRFEEAAGAAPCRLALSPNAQVLALASGSSIHLYNTRRGEKEECFERVHGECIANLSFDITGRFLASCGDRAVRLFHNTPGHRAMVEEMQGHLKRASNESTRQRLQQQLTQAQETLKSLGALKK [TBL2]", "values": [{"measurement": "solubility in G1/S (log2)", "setting": "HeLa Kyoto [1]", "value": -0.571}, {"measurement": "melting temperature", "setting": "HeLa Kyoto [2]; cell cycle stage: G1/S", "value": 51, "unit": "°C"}, {"measurement": "melting temperature", "setting": "HeLa Kyoto [2]; cell cycle stage: mitosis", "value": 50.4, "unit": "°C"}, {"measurement": "solubility change mitosis (log2)", "setting": "HeLa Kyoto [3]", "value": 0.307}, {"measurement": "thermal stability score", "setting": "HeLa Kyoto [4]; [5]", "value": 0.379}, {"measurement": "thermal stability score", "setting": "HeLa Kyoto [4]; cell cycle stage: mitosis", "value": -0.532}]}
{"sequence": "MELTIFILRLAIYILTFPLYLLNFLGLWSWICKKWFPYFLVRFTVIYNEQMASKKRELFSNLQEFAGPSGKLSLLEVGCGTGANFKFYPPGCRVTCIDPNPNFEKFLIKSIAENRHLQFERFVVAAGENMHQVADGSVDVVVCTLVLCSVKNQERILREVCRVLRPGGAFYFMEHVAAECSTWNYFWQQVLDPAWHLLFDGCNLTRESWKALERASFSKLKLQHIQAPLSWELVRPHIYGYAVK [METTL7A]", "values": [{"measurement": "solubility in G1/S (log2)", "setting": "HeLa Kyoto [1]", "value": -0.294}, {"measurement": "melting temperature", "setting": "HeLa Kyoto [2]; cell cycle stage: G1/S", "value": 57.6, "unit": "°C"}, {"measurement": "melting temperature", "setting": "HeLa Kyoto [2]; cell cycle stage: mitosis", "value": 56.8, "unit": "°C"}, {"measurement": "solubility change mitosis (log2)", "setting": "HeLa Kyoto [3]", "value": -0.0939}, {"measurement": "thermal stability score", "setting": "HeLa Kyoto [4]; [5]", "value": 0.77}, {"measurement": "thermal stability score", "setting": "HeLa Kyoto [4]; cell cycle stage: mitosis", "value": -0.471}]}
{"sequence": "MEMGRRIHLELRNRTPSDVKELVLDNSRSNEGKLEGLTDEFEELEFLSTINVGLTSIANLPKLNKLKKLELSDNRVSGGLEVLAEKCPNLTHLNLSGNKIKDLSTIEPLKKLENLKSLDLFNCEVTNLNDYRENVFKLLPQLTYLDGYDRDDKEAPDSDAEGYVEGLDDEEEDEDEEEYDEDAQVVEDEEDEDEEEEGEEEDVSGEEEEDEEGYNDGEVDDEEDEEELGEEERGQKRKREPEDEGEDDD [ANP32A]", "values": [{"measurement": "solubility in G1/S (log2)", "setting": "HeLa Kyoto [1]", "value": -0.297}, {"measurement": "melting temperature", "setting": "HeLa Kyoto [2]; cell cycle stage: G1/S", "value": 52.3, "unit": "°C"}, {"measurement": "melting temperature", "setting": "HeLa Kyoto [2]; cell cycle stage: mitosis", "value": 53.2, "unit": "°C"}, {"measurement": "solubility change mitosis (log2)", "setting": "HeLa Kyoto [3]", "value": 0.466}, {"measurement": "thermal stability score", "setting": "HeLa Kyoto [4]; [5]", "value": 0.819}, {"measurement": "thermal stability score", "setting": "HeLa Kyoto [4]; cell cycle stage: mitosis", "value": 2.54}]}
{"sequence": "MEMPLPPDDQELRNVIDKLAQFVARNGPEFEKMTMEKQKDNPKFSFLFGGEFYSYYKCKLALEQQQLICKQQTPELEPAATMPPLPQPPLAPAAPIPPAQGAPSMDELIQQSQWNLQQQEQHLLALRQEQVTAAVAHAVEQQMQKLLEETQLDMNEFDNLLQPIIDTCTKDAISAGKNWMFSNAKSPPHCELMAGHLRNRITADGAHFELRLHLIYLINDVLHHCQRKQARELLAALQKVVVPIYCTSFLAVEEDKQQKIARLLQLWEKNGYFDDSIIQQLQSPALGLGQYQATLINEYSSVVQPVQLAFQQQIQTLKTQHEEFVTSLAQQQQQQQQQQQQLQMPQMEAEVKATPPPPAPPPAPAPAPAIPPTTQPDDSKPPIQMPGSSEYEAPGGVQDPAAAGPRGPGPHDQIPPNKPPWFDQPHPVAPWGQQQPPEQPPYPHHQGGPPHCPPWNNSHEGMWGEQRGDPGWNGQRDAPWNNQPDAAWNSQFEGPWNSQHEQPPWGGGQREPPFRMQRPPHFRGPFPPHQQHPQFNQPPHPHNFNRFPPRFMQDDFPPRHPFERPPYPHRFDYPQGDFPAEMGPPHHHPGHRMPHPGINEHPPWAGPQHPDFGPPPHGFNGQPPHMRRQGPPHINHDDPSLVPNVPYFDLPAGLMAPLVKLEDHEYKPLDPKDIRLPPPMPPSERLLAAVEAFYSPPSHDRPRNSEGWEQNGLYEFFRAKMRARRRKGQEKRNSGPSRSRSRSKSRGRSSSRSNSRSSKSSGSYSRSRSRSCSRSYSRSRSRSRSRSRSSRSRSRSQSRSRSKSYSPGRRRRSRSRSPTPPSSAGLGSNSAPPIPDSRLGEENKGHQMLVKMGWSGSGGLGAKEQGIQDPIKGGDVRDKWDQYKGVGVALDDPYENYRRNKSYSFIARMKARDECK [CHERP]", "values": [{"measurement": "solubility in G1/S (log2)", "setting": "HeLa Kyoto [1]", "value": -0.174}, {"measurement": "melting temperature", "setting": "HeLa Kyoto [2]; cell cycle stage: G1/S", "value": 47.6, "unit": "°C"}, {"measurement": "melting temperature", "setting": "HeLa Kyoto [2]; cell cycle stage: mitosis", "value": 49.2, "unit": "°C"}, {"measurement": "solubility change mitosis (log2)", "setting": "HeLa Kyoto [3]", "value": 0.513}, {"measurement": "thermal stability score", "setting": "HeLa Kyoto [4]; [5]", "value": 1.81}, {"measurement": "thermal stability score", "setting": "HeLa Kyoto [4]; cell cycle stage: mitosis", "value": 4.57}]}
